In the supplement of paper PMC9112550, “Optimization of the antimicrobial peptide Bac7 by deep mutational scanning” (BMC Biology, 2022):

Test system: Escherichia coli TOP10
Assay: shrunken log2 fold change of peptide-encoding DNA abundance (4.5 h post-induction vs induction); higher = less antimicrobial activity (less host growth inhibition)
Conditions: time post-induction: 4.5 h; library: site-saturation at positions 5, 18, 19, 20
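Note: peptides expressed intracellularly from a pBAD plasmid library in pooled LB shake-flask culture, induced with 0.3% L-arabinose, DNA abundance read by NGS, three biological replicates, DESeq2 with apeglm shrinkage.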

Sequence | shrunken log2 fold change
RRIRARPPRLPRPRPRPAAHPRP | 0.478
RRIRARPPRLPRPRPRPAAMPRP | 0.856
RRIRARPPRLPRPRPRPACHPRP | 0.371
RRIRARPPRLPRPRPRPADTPRP | 0.0859
RRIRARPPRLPRPRPRPAELPRP | 0.426
RRIRARPPRLPRPRPRPAEWPRP | 0.245
RRIRARPPRLPRPRPRPAFYPRP | 0.117
RRIRARPPRLPRPRPRPAGYPRP | 0.399
RRIRARPPRLPRPRPRPAHEPRP | 0.128
RRIRARPPRLPRPRPRPAHKPRP | 0.664
RRIRARPPRLPRPRPRPAHLPRP | 0.271
RRIRARPPRLPRPRPRPAHMPRP | -0.114
RRIRARPPRLPRPRPRPAIRPRP | 0.422
RRIRARPPRLPRPRPRPALEPRP | 1.19
RRIRARPPRLPRPRPRPAMSPRP | 0.43
RRIRARPPRLPRPRPRPAMYPRP | 0.0624
RRIRARPPRLPRPRPRPAPFPRP | 0.392
RRIRARPPRLPRPRPRPAPRPRP | 1.02
RRIRARPPRLPRPRPRPARDPRP | 0.298
RRIRARPPRLPRPRPRPAREPRP | 0.835
RRIRARPPRLPRPRPRPARKPRP | 0.898
RRIRARPPRLPRPRPRPARSPRP | 0.31
RRIRARPPRLPRPRPRPASCPRP | 0.295
RRIRARPPRLPRPRPRPASIPRP | 0.0775
RRIRARPPRLPRPRPRPAVCPRP | 0.442
RRIRARPPRLPRPRPRPAWIPRP | 0.116
RRIRARPPRLPRPRPRPAYCPRP | -0.00541

Sequence | shrunken log2 fold change
RRIRARPPRLPRPRPRPCASPRP | 0.158
RRIRARPPRLPRPRPRPCCSPRP | 0.0121
RRIRARPPRLPRPRPRPCCWPRP | 0.245
RRIRARPPRLPRPRPRPCDLPRP | 0.15
RRIRARPPRLPRPRPRPCGHPRP | 0.0628
RRIRARPPRLPRPRPRPCGIPRP | 0.23
RRIRARPPRLPRPRPRPCHFPRP | -0.0257
RRIRARPPRLPRPRPRPCHMPRP | -0.0816
RRIRARPPRLPRPRPRPCHPPRP | 0.194
RRIRARPPRLPRPRPRPCIGPRP | 0.0942
RRIRARPPRLPRPRPRPCITPRP | 0.178
RRIRARPPRLPRPRPRPCLAPRP | 0.328
RRIRARPPRLPRPRPRPCNHPRP | -0.177
RRIRARPPRLPRPRPRPCNPPRP | -0.0307
RRIRARPPRLPRPRPRPCPAPRP | 0.209
RRIRARPPRLPRPRPRPCPSPRP | 0.0639
RRIRARPPRLPRPRPRPCQFPRP | -0.0602
RRIRARPPRLPRPRPRPCQSPRP | -0.0122
RRIRARPPRLPRPRPRPCQTPRP | -0.0627
RRIRARPPRLPRPRPRPCQYPRP | -0.411
RRIRARPPRLPRPRPRPCRPPRP | -0.153
RRIRARPPRLPRPRPRPCRWPRP | 0.26
RRIRARPPRLPRPRPRPCSAPRP | 0.356
RRIRARPPRLPRPRPRPCSMPRP | 0.00269
RRIRARPPRLPRPRPRPCTPPRP | -0.0509
RRIRARPPRLPRPRPRPCYNPRP | -0.456
RRIRARPPRLPRPRPRPDDFPRP | -0.013
